Article PMC9352680, “A comprehensive thermodynamic model for RNA binding by the Saccharomyces cerevisiae Pumilio protein PUF4”

T1: PUF4 RNA-binding domain (Saccharomyces cerevisiae, UniProt P25339 537-888)
T1 sequence: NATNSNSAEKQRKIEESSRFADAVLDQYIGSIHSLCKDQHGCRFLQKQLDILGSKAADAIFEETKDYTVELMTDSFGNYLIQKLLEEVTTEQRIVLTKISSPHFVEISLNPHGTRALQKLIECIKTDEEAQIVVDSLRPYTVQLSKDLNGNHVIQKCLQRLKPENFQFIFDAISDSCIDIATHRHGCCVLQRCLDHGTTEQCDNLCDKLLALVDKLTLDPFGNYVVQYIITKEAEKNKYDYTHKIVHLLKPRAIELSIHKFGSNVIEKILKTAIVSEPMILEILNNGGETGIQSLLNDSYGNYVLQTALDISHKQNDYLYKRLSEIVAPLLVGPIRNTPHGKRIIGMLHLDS


Target: T1, PUF4 RNA-binding domain
Assay: Mg; RNA-MaP; 20 mM Na-HEPES pH 7.4, 30 mM KOAc, 0.75 mM MgCl2, 0.1% Tween-20, 5% glycerol, 0.1 mg/mL BSA, 2 mM DTT; 25 C; 0.0125-409.6 nM protein
Details: tags: N-His6-TEV cleaved; C-SNAP kept, Cy3B-labelled; label: tethered on chip by stalled RNA polymerase

Row | Binder | Kd
1 | Id_ii_S2_P5E.3_K5.2_C5.2_[C-2A]_H5.2_A5.1_F5.1_T5.2_[T11C]_[A12C] (ssRNA) RNA: UUUGAUUAAUAUGAUAUCGUUCUUUCUAUUAUAUUAUUACCUUCUUUCUCGAUAUCAUAUUAAUCUUU | 142 nM
2 | UCUCUUUGUAUUUCUAUCUCUU (ssRNA) [Ib_S1_P5E.1_K5.1_C5.1_H5.1_A5.1_[A7T]_F5.1_[T8C]_T5.1] | 6.46 nM
3 | Id_ii_S2_P5E.3_K5.2_C5.2_[C-2A]_H5.2_A5.1_F5.1_T5.2_[T11C]_[A12T] (ssRNA) RNA: UUUGAUUAAUAUGAUAUCGUUCUUUCUAUUAUAUUAUUACUUUCUUUCUCGAUAUCAUAUUAAUCUUU | 97.6 nM
4 | Id_ii_S2_P5E.3_K5.2_C5.2_[C-2A]_H5.2_A5.1_F5.1_T5.2_[T11C] (ssRNA) RNA: UUUGAUUAAUAUGAUAUCGUUCUUUCUAUUAUAUUAUUACAUUCUUUCUCGAUAUCAUAUUAAUCUUU | 207 nM
5 | Id_ii_S2_P5E.3_K5.2_C5.2_[C-2A]_H5.2_A5.1_F5.1_T5.2_[A12C] (ssRNA) RNA: UUUGAUUAAUAUGAUAUCGUUCUUUCUAUUAUAUUAUUAUCUUCUUUCUCGAUAUCAUAUUAAUCUUU | 122 nM
6 | Id_ii_S2_P5E.3_K5.2_C5.2_[C-2A]_H5.2_A5.1_F5.1_T5.2_[A12T] (ssRNA) RNA: UUUGAUUAAUAUGAUAUCGUUCUUUCUAUUAUAUUAUUAUUUUCUUUCUCGAUAUCAUAUUAAUCUUU | 269 nM
7 | Id_ii_S2_P5E.3_K5.2_C5.2_[T-1G]_H5.2_A5.1_F5.1_T5.2_[T11G]_[A12C] (ssRNA) RNA: UUUGAUUAAUAUGAUAUCGUUCUUUCUCGUAUAUUAUUAGCUUCUUUCUCGAUAUCAUAUUAAUCUUU | 28.1 nM
8 | Id_ii_S2_P5E.3_K5.2_C5.2_[T-1G]_H5.2_A5.1_F5.1_T5.2_[T11G]_[A12T] (ssRNA) RNA: UUUGAUUAAUAUGAUAUCGUUCUUUCUCGUAUAUUAUUAGUUUCUUUCUCGAUAUCAUAUUAAUCUUU | 38.1 nM
9 | Id_ii_S2_P5E.3_K5.2_C5.2_[T-1G]_H5.2_A5.1_F5.1_T5.2_[T11A]_[A12C] (ssRNA) RNA: UUUGAUUAAUAUGAUAUCGUUCUUUCUCGUAUAUUAUUAACUUCUUUCUCGAUAUCAUAUUAAUCUUU | 15.5 nM
10 | Id_ii_S2_P5E.3_K5.2_C5.2_[T-1G]_H5.2_A5.1_F5.1_T5.2_[T11A]_[A12T] (ssRNA) RNA: UUUGAUUAAUAUGAUAUCGUUCUUUCUCGUAUAUUAUUAAUUUCUUUCUCGAUAUCAUAUUAAUCUUU | 12.1 nM
11 | Id_ii_S2_P5E.3_K5.2_C5.2_[T-1G]_H5.2_A5.1_F5.1_T5.2_[A12C] (ssRNA) RNA: UUUGAUUAAUAUGAUAUCGUUCUUUCUCGUAUAUUAUUAUCUUCUUUCUCGAUAUCAUAUUAAUCUUU | 28.4 nM
12 | Id_ii_S2_P5E.3_K5.2_C5.2_[T-1G]_H5.2_A5.1_F5.1_T5.2_[A12T] (ssRNA) RNA: UUUGAUUAAUAUGAUAUCGUUCUUUCUCGUAUAUUAUUAUUUUCUUUCUCGAUAUCAUAUUAAUCUUU | 11.9 nM
13 | UCUCUUUGUAUAUUUCUCUU (ssRNA) [Ic_S1_P3E.1_K3.1_C3.1_H3.1_A3.1_F3.1_[A8T]_T3.1] | 4.59 nM
14 | UCUCUUUGUCUUAUUAUCUCUU (ssRNA) [Ia_S1_P5E.1_K5.1_C5.1_H5.1_[A4C]_A5.1_F5.1_T5.1] | 38.3 nM
15 | UCUCUUUGUAUUCAUAUCUCUU (ssRNA) [Ib_S1_P5E.1_K5.1_C5.1_H5.1_A5.1_[A7C]_F5.1_[T8A]_T5.1] | 14 nM
16 | Id_ii_S2_P5E.3_K5.2_C5.2_[T-1C]_H5.2_A5.1_F5.1_T5.2_[T11C]_[A12G] (ssRNA) RNA: UUUGAUUAAUAUGAUAUCGUUCUUUCUCCUAUAUUAUUACGUUCUUUCUCGAUAUCAUAUUAAUCUUU | 392 nM
17 | Id_ii_S2_P5E.3_K5.2_C5.2_[T-1C]_H5.2_A5.1_F5.1_T5.2_[T11C]_[A12C] (ssRNA) RNA: UUUGAUUAAUAUGAUAUCGUUCUUUCUCCUAUAUUAUUACCUUCUUUCUCGAUAUCAUAUUAAUCUUU | 87.3 nM
18 | Id_ii_S2_P5E.3_K5.2_C5.2_[T-1C]_H5.2_A5.1_F5.1_T5.2_[T11C]_[A12T] (ssRNA) RNA: UUUGAUUAAUAUGAUAUCGUUCUUUCUCCUAUAUUAUUACUUUCUUUCUCGAUAUCAUAUUAAUCUUU | 57.9 nM
19 | Id_ii_S2_P5E.3_K5.2_C5.2_[T-1C]_H5.2_A5.1_F5.1_T5.2_[T11A]_[A12G] (ssRNA) RNA: UUUGAUUAAUAUGAUAUCGUUCUUUCUCCUAUAUUAUUAAGUUCUUUCUCGAUAUCAUAUUAAUCUUU | 887 nM
20 | Id_ii_S2_P5E.3_K5.2_C5.2_[T-1C]_H5.2_A5.1_F5.1_T5.2_[T11A]_[A12C] (ssRNA) RNA: UUUGAUUAAUAUGAUAUCGUUCUUUCUCCUAUAUUAUUAACUUCUUUCUCGAUAUCAUAUUAAUCUUU | 108 nM
21 | Id_ii_S2_P5E.3_K5.2_C5.2_[T-1C]_H5.2_A5.1_F5.1_T5.2_[T11A]_[A12T] (ssRNA) RNA: UUUGAUUAAUAUGAUAUCGUUCUUUCUCCUAUAUUAUUAAUUUCUUUCUCGAUAUCAUAUUAAUCUUU | 138 nM
22 | Id_ii_S2_P5E.3_K5.2_C5.2_[T-1C]_H5.2_A5.1_F5.1_T5.2_[T11A] (ssRNA) RNA: UUUGAUUAAUAUGAUAUCGUUCUUUCUCCUAUAUUAUUAAAUUCUUUCUCGAUAUCAUAUUAAUCUUU | 151 nM
23 | Id_ii_S2_P5E.3_K5.2_C5.2_[T-1C]_H5.2_A5.1_F5.1_T5.2_[A12T] (ssRNA) RNA: UUUGAUUAAUAUGAUAUCGUUCUUUCUCCUAUAUUAUUAUUUUCUUUCUCGAUAUCAUAUUAAUCUUU | 79.4 nM

Row | Binder | Kd
24 | Id_ii_S2_P5E.3_K5.2_C5.2_[T-1A]_H5.2_A5.1_F5.1_T5.2_[T11G]_[A12C] (ssRNA) RNA: UUUGAUUAAUAUGAUAUCGUUCUUUCUCAUAUAUUAUUAGCUUCUUUCUCGAUAUCAUAUUAAUCUUU | 112 nM
25 | Id_ii_S2_P5E.3_K5.2_C5.2_[T-1A]_H5.2_A5.1_F5.1_T5.2_[T11C]_[A12G] (ssRNA) RNA: UUUGAUUAAUAUGAUAUCGUUCUUUCUCAUAUAUUAUUACGUUCUUUCUCGAUAUCAUAUUAAUCUUU | 372 nM
26 | UCUCUUUGUAUUUAUAUCUCUU (ssRNA) [Ib_S1_P5E.1_K5.1_C5.1_H5.1_A5.1_[A7T]_F5.1_[T8A]_T5.1] | 5.27 nM
27 | Id_ii_S2_P5E.3_K5.2_C5.2_[T-1A]_H5.2_A5.1_F5.1_T5.2_[T11C]_[A12C] (ssRNA) RNA: UUUGAUUAAUAUGAUAUCGUUCUUUCUCAUAUAUUAUUACCUUCUUUCUCGAUAUCAUAUUAAUCUUU | 69.4 nM
28 | Id_ii_S2_P5E.3_K5.2_C5.2_[T-1A]_H5.2_A5.1_F5.1_T5.2_[T11C]_[A12T] (ssRNA) RNA: UUUGAUUAAUAUGAUAUCGUUCUUUCUCAUAUAUUAUUACUUUCUUUCUCGAUAUCAUAUUAAUCUUU | 90.7 nM
29 | Id_ii_S2_P5E.3_K5.2_C5.2_[T-1A]_H5.2_A5.1_F5.1_T5.2_[T11C] (ssRNA) RNA: UUUGAUUAAUAUGAUAUCGUUCUUUCUCAUAUAUUAUUACAUUCUUUCUCGAUAUCAUAUUAAUCUUU | 166 nM
30 | Id_ii_S2_P5E.3_K5.2_C5.2_[T-1A]_H5.2_A5.1_F5.1_T5.2_[T11A]_[A12G] (ssRNA) RNA: UUUGAUUAAUAUGAUAUCGUUCUUUCUCAUAUAUUAUUAAGUUCUUUCUCGAUAUCAUAUUAAUCUUU | 1200 nM
31 | Id_ii_S2_P5E.3_K5.2_C5.2_[T-1A]_H5.2_A5.1_F5.1_T5.2_[T11A]_[A12C] (ssRNA) RNA: UUUGAUUAAUAUGAUAUCGUUCUUUCUCAUAUAUUAUUAACUUCUUUCUCGAUAUCAUAUUAAUCUUU | 96.4 nM
32 | Id_ii_S2_P5E.3_K5.2_C5.2_[T-1A]_H5.2_A5.1_F5.1_T5.2_[T11A]_[A12T] (ssRNA) RNA: UUUGAUUAAUAUGAUAUCGUUCUUUCUCAUAUAUUAUUAAUUUCUUUCUCGAUAUCAUAUUAAUCUUU | 131 nM
33 | Id_ii_S2_P5E.3_K5.2_C5.2_[T-1A]_H5.2_A5.1_F5.1_T5.2_[T11A] (ssRNA) RNA: UUUGAUUAAUAUGAUAUCGUUCUUUCUCAUAUAUUAUUAAAUUCUUUCUCGAUAUCAUAUUAAUCUUU | 246 nM
34 | Id_ii_S2_P5E.3_K5.2_C5.2_[T-1A]_H5.2_A5.1_F5.1_T5.2_[A12C] (ssRNA) RNA: UUUGAUUAAUAUGAUAUCGUUCUUUCUCAUAUAUUAUUAUCUUCUUUCUCGAUAUCAUAUUAAUCUUU | 151 nM
35 | Id_ii_S2_P5E.3_K5.2_C5.2_[T-1A]_H5.2_A5.1_F5.1_T5.2_[A12T] (ssRNA) RNA: UUUGAUUAAUAUGAUAUCGUUCUUUCUCAUAUAUUAUUAUUUUCUUUCUCGAUAUCAUAUUAAUCUUU | 223 nM
36 | Id_ii_S2_P5E.3_K5.2_C5.2_H5.2_A5.1_F5.1_T5.2_[T11G]_[A12C] (ssRNA) RNA: UUUGAUUAAUAUGAUAUCGUUCUUUCUCUUAUAUUAUUAGCUUCUUUCUCGAUAUCAUAUUAAUCUUU | 127 nM
37 | UCUCUUUGUACUAUGAUCUCUU (ssRNA) [Ib_S1_P5E.1_K5.1_C5.1_H5.1_A5.1_[T5C]_F5.1_[T9G]_T5.1] | 13.2 nM
38 | Id_ii_S2_P5E.3_K5.2_C5.2_H5.2_A5.1_F5.1_T5.2_[T11G]_[A12T] (ssRNA) RNA: UUUGAUUAAUAUGAUAUCGUUCUUUCUCUUAUAUUAUUAGUUUCUUUCUCGAUAUCAUAUUAAUCUUU | 462 nM
39 | Id_ii_S2_P5E.3_K5.2_C5.2_H5.2_A5.1_F5.1_T5.2_[T11C]_[A12G] (ssRNA) RNA: UUUGAUUAAUAUGAUAUCGUUCUUUCUCUUAUAUUAUUACGUUCUUUCUCGAUAUCAUAUUAAUCUUU | 426 nM
40 | Id_ii_S2_P5E.3_K5.2_C5.2_H5.2_A5.1_F5.1_T5.2_[T11C]_[A12C] (ssRNA) RNA: UUUGAUUAAUAUGAUAUCGUUCUUUCUCUUAUAUUAUUACCUUCUUUCUCGAUAUCAUAUUAAUCUUU | 92.1 nM
41 | Id_ii_S2_P5E.3_K5.2_C5.2_H5.2_A5.1_F5.1_T5.2_[T11C]_[A12T] (ssRNA) RNA: UUUGAUUAAUAUGAUAUCGUUCUUUCUCUUAUAUUAUUACUUUCUUUCUCGAUAUCAUAUUAAUCUUU | 77.9 nM
42 | Id_ii_S2_P5E.3_K5.2_C5.2_H5.2_A5.1_F5.1_T5.2_[T11C] (ssRNA) RNA: UUUGAUUAAUAUGAUAUCGUUCUUUCUCUUAUAUUAUUACAUUCUUUCUCGAUAUCAUAUUAAUCUUU | 103 nM
43 | Id_ii_S2_P5E.3_K5.2_C5.2_H5.2_A5.1_F5.1_T5.2_[T11A]_[A12C] (ssRNA) RNA: UUUGAUUAAUAUGAUAUCGUUCUUUCUCUUAUAUUAUUAACUUCUUUCUCGAUAUCAUAUUAAUCUUU | 230 nM
44 | Id_ii_S2_P5E.3_K5.2_C5.2_H5.2_A5.1_F5.1_T5.2_[T11A]_[A12T] (ssRNA) RNA: UUUGAUUAAUAUGAUAUCGUUCUUUCUCUUAUAUUAUUAAUUUCUUUCUCGAUAUCAUAUUAAUCUUU | 234 nM
45 | Id_ii_S2_P5E.3_K5.2_C5.2_H5.2_A5.1_F5.1_T5.2_[A12C] (ssRNA) RNA: UUUGAUUAAUAUGAUAUCGUUCUUUCUCUUAUAUUAUUAUCUUCUUUCUCGAUAUCAUAUUAAUCUUU | 65.7 nM
